According to publication PMC4383598, “Role of Cysteine Residues in the Structure, Stability, and Alkane Producing Activity of Cyanobacterial Aldehyde Deformylating Oxygenase” (PLoS ONE, 2015):

Molecular target: the molecule itself
Assay: SEC; Superdex 200pg (124 mL), 500 uL of protein at 2.5 mg/mL, 0.5 mL/min, 10 mM sodium phosphate pH 7.2, 150 mM NaCl; fraction of dimer against monomer

Row | Protein | stoichiometry N
1 | Aldehyde deformylating oxygenase from Nostoc punctiforme PCC 73102, C71S mutant (enzyme, UniProt B2J1M1 1-232, looked up, Aldehyde deformylating oxygenase of Nostoc punctiforme PCC 73102; codon-optimised synthetic gene; Same construct as m1 with the mutation; source: E. coli BL21(DE3)pLysS (pET-15b-AD variant), purified (Ni-agarose, dialysis)) MQQLTDQSKELDFKSETYKDAYSRINAIVIEGEQEAHENYITLAQLLPESHDELIRLSKMESRHKKGFEASGRNLAVTPDLQFAKEFFSGLHQNFQTAAAEGKVVTCLLIQSLIIECFAIAAYNIYIPVADDFARKITEGVVKEEYSHLNFGEVWLKEHFAESKAELELANRQNLPIVWKMLNQVEGDAHTMAMEKDALVEDFMIQYGEALSNIGFSTRDIMRLSAYGLIGA | 2
2 | Aldehyde deformylating oxygenase from Nostoc punctiforme PCC 73102, C71A mutant (enzyme, UniProt B2J1M1 1-232, looked up, Aldehyde deformylating oxygenase of Nostoc punctiforme PCC 73102; codon-optimised synthetic gene; Same construct as m1 with the mutation; source: E. coli BL21(DE3)pLysS (pET-15b-AD variant), purified (Ni-agarose, dialysis)) MQQLTDQSKELDFKSETYKDAYSRINAIVIEGEQEAHENYITLAQLLPESHDELIRLSKMESRHKKGFEAAGRNLAVTPDLQFAKEFFSGLHQNFQTAAAEGKVVTCLLIQSLIIECFAIAAYNIYIPVADDFARKITEGVVKEEYSHLNFGEVWLKEHFAESKAELELANRQNLPIVWKMLNQVEGDAHTMAMEKDALVEDFMIQYGEALSNIGFSTRDIMRLSAYGLIGA | 2
